In doi:10.64898/2025.12.15.694443:

Target: BRAF kinase domain (his6-BRAF^445-723-intein, intein cleaved) (human) (UniProt P15056)
Assay: mass photometry

- stoichiometry N: 2
Substance: BRAF kinase domain (his6-BRAF^445-723-intein, intein cleaved) (from UniProt P15056 445-723) (domain or fragment)
